Data published in publication PMC2720631.

Target: TRIP8b (mouse (endogenous in forebrain cortex)) (UniProt Q8C437)
Test: co-IP

Chain of UniProt Q8C437 (Q8C437 whole entry): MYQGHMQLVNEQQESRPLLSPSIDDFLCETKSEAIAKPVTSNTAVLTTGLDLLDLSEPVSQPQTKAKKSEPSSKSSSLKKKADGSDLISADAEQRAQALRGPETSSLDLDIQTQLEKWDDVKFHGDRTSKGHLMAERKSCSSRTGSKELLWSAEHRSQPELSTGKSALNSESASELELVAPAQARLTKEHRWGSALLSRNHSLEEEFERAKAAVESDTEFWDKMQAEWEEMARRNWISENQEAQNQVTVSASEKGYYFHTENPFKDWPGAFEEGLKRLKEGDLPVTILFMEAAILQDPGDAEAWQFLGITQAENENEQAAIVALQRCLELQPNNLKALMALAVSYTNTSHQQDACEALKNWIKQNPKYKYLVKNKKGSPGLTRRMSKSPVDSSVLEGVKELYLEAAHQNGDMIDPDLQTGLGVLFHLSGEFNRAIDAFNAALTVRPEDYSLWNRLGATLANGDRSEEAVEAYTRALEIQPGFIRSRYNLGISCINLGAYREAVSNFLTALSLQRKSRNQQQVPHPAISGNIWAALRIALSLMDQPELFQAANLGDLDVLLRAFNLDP
Chain of HCN1 (O88704 whole entry): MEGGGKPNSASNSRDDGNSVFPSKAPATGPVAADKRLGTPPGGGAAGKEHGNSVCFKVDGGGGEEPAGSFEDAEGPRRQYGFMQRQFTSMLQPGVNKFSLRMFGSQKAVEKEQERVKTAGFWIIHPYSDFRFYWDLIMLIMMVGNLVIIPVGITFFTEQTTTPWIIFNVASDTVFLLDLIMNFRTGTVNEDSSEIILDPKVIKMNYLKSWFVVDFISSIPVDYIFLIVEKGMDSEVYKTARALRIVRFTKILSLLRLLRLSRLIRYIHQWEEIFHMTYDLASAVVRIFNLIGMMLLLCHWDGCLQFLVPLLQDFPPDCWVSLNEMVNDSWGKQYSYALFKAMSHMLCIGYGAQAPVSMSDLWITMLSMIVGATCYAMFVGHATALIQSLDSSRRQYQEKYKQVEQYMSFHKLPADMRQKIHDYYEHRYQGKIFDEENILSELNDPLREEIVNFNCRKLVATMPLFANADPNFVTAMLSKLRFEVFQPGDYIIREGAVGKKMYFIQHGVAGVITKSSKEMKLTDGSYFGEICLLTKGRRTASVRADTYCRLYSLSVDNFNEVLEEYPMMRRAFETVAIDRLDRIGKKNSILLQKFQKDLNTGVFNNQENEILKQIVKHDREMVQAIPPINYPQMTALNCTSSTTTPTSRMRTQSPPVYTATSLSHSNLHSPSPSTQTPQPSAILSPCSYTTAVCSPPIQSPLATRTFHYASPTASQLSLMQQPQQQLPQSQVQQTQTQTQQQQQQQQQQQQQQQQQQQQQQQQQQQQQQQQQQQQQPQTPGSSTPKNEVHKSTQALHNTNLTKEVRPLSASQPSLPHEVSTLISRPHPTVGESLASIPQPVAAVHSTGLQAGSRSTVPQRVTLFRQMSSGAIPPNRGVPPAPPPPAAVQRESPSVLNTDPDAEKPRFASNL

For “HCN1 (from UniProt O88704 1-910) (natural protein)”, the percent of HCN1 co-immunoprecipitated was < 50%.
